Source: publication PMC12207370, “Macrocyclic Peptide Probes for Immunomodulatory Protein CD59: Potent Modulators of Bacterial Toxin Activity and Antibody‐Dependent Cytotoxicity” (Angewandte Chemie (International Ed. in English), 2025)

Molecular target: T1, biotinylated CD59 (Homo sapiens, UniProt P13987)
T1 construct: Recombinant soluble human CD59 with an additional C-terminal cysteine residue
T1 sequence (P13987 26-102 limits assumed): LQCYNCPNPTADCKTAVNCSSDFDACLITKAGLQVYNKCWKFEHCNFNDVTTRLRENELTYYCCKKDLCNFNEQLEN
Test: mRNA-display cyclic peptide screen against CD59-biotin, NGS abundance after 6th selection round
Conditions: for Percentage Seq I: counts normalised by total counts of sample Seq I; for Percentage Seq I / Percentage Seq II: percentage of the pool; for Percentage Seq I / Percentage Seq II / Percentage Average / Percentage of the pool, averaged across the two sequencing samples / Percentage of the pool, Seq I / Percentage of the pool, Seq II: sheet R6; for Percentage Seq II: counts normalised by total counts of sample Seq II; for Percentage Average: percentage of the pool averaged across the two sequencing samples; for Counts Seq I / Counts Seq II: raw NGS counts of peptide sequence; for Counts Seq I: sequencing sample Seq I; for Counts Seq I / Counts Seq II / Counts (raw counts for peptide sequence), Seq I / Counts (raw counts for peptide sequence), Seq II: sheet R6 (6th selection round); for Counts Seq II: sequencing sample Seq II; for Counts (raw counts for peptide sequence), Seq I: NGS sample Seq I; for Counts (raw counts for peptide sequence), Seq II: NGS sample Seq II; for Percentage of the pool, averaged across the two sequencing samples: average of Seq I and Seq II; for Percentage of the pool, Seq I: counts normalised by total counts of NGS sample Seq I; for Percentage of the pool, Seq II: counts normalised by total counts of NGS sample Seq II
Method in brief: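 Peptide–mRNA fusions were made by in vitro translation with a customised PURE express kit. The kit lacked release factor 1 and methionine and was supplemented with […] initiator tRNA carrying N-chloroacetyl-d-tyrosine. Thioether macrocycles were formed, then enriched and amplified over iterative rounds on CD59-biotin immobilised on streptavidin beads. NGS read counts per sequence were recorded after the 6th selection round.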

Sequence	Percentage Seq I [%]	Percentage Seq II [%]	Percentage Average [%]	Counts Seq I	Counts Seq II	Counts (raw counts for peptide sequence), Seq I	Counts (raw counts for peptide sequence), Seq II	Percentage of the pool, averaged across the two sequencing samples [%]	Percentage of the pool, Seq I [%]	Percentage of the pool, Seq II [%]
LRGSYDYQLYFG	0.013	0.023	0.018	57	10	–	–	–	–	–
LVRGDLYSVLG	–	–	–	–	–	85	7	0.018	0.019	0.016
LVTGNRDHTRG	0.023	0.030	0.027	100	13	–	–	–	–	–
LWGAANYLKVIY	0.046	0.023	0.035	201	10	–	–	–	–	–
LWGTHSYIYYRP	0.482	0.490	0.486	2109	211	–	–	–	–	–
LWGTHSYTYYRP	–	–	–	–	–	60	4	0.011	0.014	0.009
LWGTHSYVYYRP	–	–	–	–	–	46	7	0.013	0.011	0.016
LWGTRSFTLVRS	–	–	–	–	–	64	5	0.013	0.015	0.012
LWWSDFYLCVVVRQRQRQLGRGAE	–	–	–	–	–	65	7	0.016	0.015	0.016
LYGNRDYSFYRP	0.162	0.169	0.166	707	73	–	–	–	–	–
LYSHPRSLCSFS	0.082	0.091	0.086	357	39	–	–	–	–	–
NSCPDWVRGSRT	0.229	0.262	0.246	1002	113	–	–	–	–	–
NTAWGNVAVAYF	0.042	0.030	0.036	183	13	–	–	–	–	–
NYVERLCTSG	–	–	–	–	–	68	5	0.014	0.016	0.012
PAWGNRQIQYY	–	–	–	–	–	58	3	0.010	0.013	0.007
PFAKRVAAQGGC	–	–	–	–	–	24	6	0.010	0.00549	0.014
PWTWGNRSSVRG	–	–	–	–	–	49	10	0.017	0.011	0.023
QFAHRISSCAS	0.032	0.030	0.031	139	13	–	–	–	–	–
QPFWGCRTVAYS	0.033	0.049	0.041	144	21	–	–	–	–	–
QWNRWYGIDEL	0.075	0.070	0.072	329	30	–	–	–	–	–
QWNRWYGIDER	0.021	0.023	0.022	94	10	–	–	–	–	–
QWNRWYGMDEL	0.284	0.260	0.272	1243	112	–	–	–	–	–
